From patent US20180155451A1 (published 2018)

T1: FcγRIIa R (extracellular domain with a His tag at the C terminus) (human, UniProt P12318 34-217)
T1 construct: extracellular domain; expressed in FreeStyle293 cells; also called FcgRIIa R; FcγRIIa type R; not shown: His tag at the C terminus
T1 sequence (looked up): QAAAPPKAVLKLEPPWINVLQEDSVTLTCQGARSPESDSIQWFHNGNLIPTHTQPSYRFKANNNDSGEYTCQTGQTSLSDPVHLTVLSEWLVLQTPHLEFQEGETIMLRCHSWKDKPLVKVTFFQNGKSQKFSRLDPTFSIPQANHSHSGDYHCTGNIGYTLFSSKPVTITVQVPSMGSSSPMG

B1: GpH7-A5/GpH7-B3 variant K326_08L/GpL16-k0 (antibody, human IgG1, kappa)
heavy 1: not shown
heavy 2: not shown
light: DIVMTQSPLSLPVTPGEPASISCQASESLVHSNRNTYLHWYLQKPGQSPQLLIYKVSNRFSGVPDRFSGSGSGTDFTLKISRVEAEDVGVYYCSQNTHVPPTFGQGTKVEIERTVAAPSVFIFPPSDEQLKSGTASVVCLLNNFYPREAKVQWKVDNALQSGNSQESVTEQDSKDSTYSLSSTLTLSKADYEKHKVYACEVTHQGLSSPVTKSFNRGEC
notes: heterodimerized; mutation in one H chain; also called He Ab
B2: GpH7-B3 variant S239_10E/GpL16-k0 (antibody, human IgG1, kappa)
heavy: not shown
light: B1 light
notes: homodimerized; mutation in both H chains; also called Ho Ab
B3: GpH7-A5/GpH7-B3 variant K334_04F/GpL16-k0 (antibody, human IgG1, kappa)
heavy 1: not shown
heavy 2: not shown
light: B1 light
notes: as for B1
B4: GpH7-A5/GpH7-B3 variant K334_10E/GpL16-k0 (antibody, human IgG1, kappa)
heavy 1: not shown
heavy 2: not shown
light: B1 light
notes: as for B1
B5: GpH7-A5/GpH7-B3 variant G237_04F/GpL16-k0 (antibody, human IgG1, kappa)
heavy 1: not shown
heavy 2: not shown
light: B1 light
notes: as for B1
B6: GpH7-B3 variant S267_06M/GpL16-k0 (antibody, human IgG1, kappa)
heavy: not shown
light: B1 light
notes: as for B2
B7: GpH7-B3 variant S337_19Q/GpL16-k0 (antibody, human IgG1, kappa)
heavy: not shown
light: B1 light
notes: as for B2
B8: GpH7-B3 variant S239_18N/GpL16-k0 (antibody, human IgG1, kappa)
heavy: not shown
light: B1 light
notes: as for B2
B9: GpH7-B3 variant P238_04F/GpL16-k0 (antibody, human IgG1, kappa)
heavy: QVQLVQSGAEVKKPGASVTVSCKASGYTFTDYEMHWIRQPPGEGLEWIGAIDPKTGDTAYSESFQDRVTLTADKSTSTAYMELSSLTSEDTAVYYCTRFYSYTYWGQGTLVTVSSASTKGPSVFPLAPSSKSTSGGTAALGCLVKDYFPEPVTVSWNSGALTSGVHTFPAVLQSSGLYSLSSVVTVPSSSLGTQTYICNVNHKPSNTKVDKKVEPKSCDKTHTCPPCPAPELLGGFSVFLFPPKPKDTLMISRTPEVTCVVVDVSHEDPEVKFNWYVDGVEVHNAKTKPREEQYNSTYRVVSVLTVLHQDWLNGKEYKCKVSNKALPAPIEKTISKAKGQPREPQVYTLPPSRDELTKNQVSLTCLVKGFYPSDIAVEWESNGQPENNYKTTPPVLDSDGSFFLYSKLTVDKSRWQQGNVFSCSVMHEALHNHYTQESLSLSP
light: B1 light
notes: as for B2
B10: GpH7-B3 variant S324_06M/GpL16-k0 (antibody, human IgG1, kappa)
heavy: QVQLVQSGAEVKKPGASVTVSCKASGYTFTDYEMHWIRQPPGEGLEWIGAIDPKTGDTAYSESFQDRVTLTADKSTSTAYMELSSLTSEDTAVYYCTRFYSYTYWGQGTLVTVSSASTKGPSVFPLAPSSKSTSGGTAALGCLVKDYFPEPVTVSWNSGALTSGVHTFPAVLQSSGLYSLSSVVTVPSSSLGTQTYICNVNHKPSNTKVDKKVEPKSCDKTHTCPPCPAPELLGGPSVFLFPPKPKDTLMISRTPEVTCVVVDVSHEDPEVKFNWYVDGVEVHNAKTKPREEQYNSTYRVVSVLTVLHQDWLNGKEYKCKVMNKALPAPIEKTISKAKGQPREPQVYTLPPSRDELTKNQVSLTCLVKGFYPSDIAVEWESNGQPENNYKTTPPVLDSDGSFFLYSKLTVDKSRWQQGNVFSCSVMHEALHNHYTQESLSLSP
light: B1 light
notes: as for B2
B11: GpH7-B3 variant S267_19Q/GpL16-k0 (antibody, human IgG1, kappa)
heavy: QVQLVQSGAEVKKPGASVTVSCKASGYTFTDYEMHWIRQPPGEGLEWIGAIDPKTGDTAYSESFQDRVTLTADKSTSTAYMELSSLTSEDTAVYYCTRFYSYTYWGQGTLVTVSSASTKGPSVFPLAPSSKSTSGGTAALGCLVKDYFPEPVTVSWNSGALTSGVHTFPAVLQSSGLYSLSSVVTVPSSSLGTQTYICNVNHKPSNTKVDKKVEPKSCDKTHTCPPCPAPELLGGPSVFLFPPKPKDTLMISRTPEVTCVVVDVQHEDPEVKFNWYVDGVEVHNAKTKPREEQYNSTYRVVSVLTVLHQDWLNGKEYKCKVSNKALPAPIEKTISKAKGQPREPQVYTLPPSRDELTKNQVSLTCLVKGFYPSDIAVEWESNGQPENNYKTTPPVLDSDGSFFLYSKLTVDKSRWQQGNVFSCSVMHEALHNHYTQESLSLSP
light: B1 light
notes: as for B2
B12: GpH7-A5/GpH7-B3 variant K326_03V/GpL16-k0 (antibody, human IgG1, kappa)
heavy 1: not shown
heavy 2: not shown
light: B1 light
notes: as for B1
B13: GpH7-A5/GpH7-B3 variant A327_09D/GpL16-k0 (antibody, human IgG1, kappa)
heavy 1: not shown
heavy 2: not shown
light: B1 light
notes: as for B1
B14: GpH7-B3 variant S337_10E/GpL16-k0 (antibody, human IgG1, kappa)
heavy: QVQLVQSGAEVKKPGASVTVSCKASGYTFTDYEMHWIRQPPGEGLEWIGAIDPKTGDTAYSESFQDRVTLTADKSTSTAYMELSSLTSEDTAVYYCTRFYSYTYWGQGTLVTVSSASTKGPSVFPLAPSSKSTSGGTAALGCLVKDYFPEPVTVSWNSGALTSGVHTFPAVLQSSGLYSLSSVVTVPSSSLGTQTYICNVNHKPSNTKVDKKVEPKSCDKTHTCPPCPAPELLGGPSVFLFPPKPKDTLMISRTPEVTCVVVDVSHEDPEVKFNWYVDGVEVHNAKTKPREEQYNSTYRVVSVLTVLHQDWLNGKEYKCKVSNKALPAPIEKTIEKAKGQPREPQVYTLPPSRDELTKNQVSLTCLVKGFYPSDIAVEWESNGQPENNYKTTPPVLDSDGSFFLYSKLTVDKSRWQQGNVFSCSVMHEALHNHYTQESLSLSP
light: B1 light
notes: as for B2
B15: GpH7-B3 variant S298_08L/GpL16-k0 (antibody, human IgG1, kappa)
heavy: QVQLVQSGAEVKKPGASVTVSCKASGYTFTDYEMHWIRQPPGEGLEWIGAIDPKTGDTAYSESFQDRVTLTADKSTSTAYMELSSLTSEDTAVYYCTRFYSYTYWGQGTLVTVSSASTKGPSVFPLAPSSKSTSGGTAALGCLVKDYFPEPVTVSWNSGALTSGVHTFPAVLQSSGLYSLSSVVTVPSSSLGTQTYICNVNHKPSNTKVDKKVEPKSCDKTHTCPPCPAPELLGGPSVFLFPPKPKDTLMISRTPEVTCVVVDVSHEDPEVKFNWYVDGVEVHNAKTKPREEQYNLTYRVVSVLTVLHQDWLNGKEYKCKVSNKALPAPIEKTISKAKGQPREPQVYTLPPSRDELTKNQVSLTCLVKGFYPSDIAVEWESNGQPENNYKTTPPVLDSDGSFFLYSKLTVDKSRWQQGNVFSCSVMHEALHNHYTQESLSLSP
light: B1 light
notes: as for B2
B16: GpH7-B3 variant S267_09D/GpL16-k0 (antibody, human IgG1, kappa)
heavy: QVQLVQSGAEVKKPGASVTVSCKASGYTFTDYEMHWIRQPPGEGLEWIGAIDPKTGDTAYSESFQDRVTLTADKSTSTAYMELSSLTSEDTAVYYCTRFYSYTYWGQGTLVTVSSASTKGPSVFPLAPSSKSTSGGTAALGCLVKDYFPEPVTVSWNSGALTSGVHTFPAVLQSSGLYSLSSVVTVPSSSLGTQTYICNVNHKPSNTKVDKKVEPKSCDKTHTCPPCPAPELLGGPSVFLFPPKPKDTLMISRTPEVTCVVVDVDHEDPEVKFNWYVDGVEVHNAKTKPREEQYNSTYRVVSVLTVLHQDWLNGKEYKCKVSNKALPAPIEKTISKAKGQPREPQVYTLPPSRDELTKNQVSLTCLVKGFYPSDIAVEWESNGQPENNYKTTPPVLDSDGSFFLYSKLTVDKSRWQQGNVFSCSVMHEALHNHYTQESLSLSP
light: B1 light
notes: as for B2
B17: GpH7-A5/GpH7-B3 variant K334_13S/GpL16-k0 (antibody, human IgG1, kappa)
heavy 1: not shown
heavy 2: not shown
light: B1 light
notes: as for B1
B18: GpH7-A5/GpH7-B3 variant K326_07I/GpL16-k0 (antibody, human IgG1, kappa)
heavy 1: not shown
heavy 2: not shown
light: B1 light
notes: as for B1
B19: GpH7-B3 variant P331_15Y/GpL16-k0 (antibody, human IgG1, kappa)
heavy: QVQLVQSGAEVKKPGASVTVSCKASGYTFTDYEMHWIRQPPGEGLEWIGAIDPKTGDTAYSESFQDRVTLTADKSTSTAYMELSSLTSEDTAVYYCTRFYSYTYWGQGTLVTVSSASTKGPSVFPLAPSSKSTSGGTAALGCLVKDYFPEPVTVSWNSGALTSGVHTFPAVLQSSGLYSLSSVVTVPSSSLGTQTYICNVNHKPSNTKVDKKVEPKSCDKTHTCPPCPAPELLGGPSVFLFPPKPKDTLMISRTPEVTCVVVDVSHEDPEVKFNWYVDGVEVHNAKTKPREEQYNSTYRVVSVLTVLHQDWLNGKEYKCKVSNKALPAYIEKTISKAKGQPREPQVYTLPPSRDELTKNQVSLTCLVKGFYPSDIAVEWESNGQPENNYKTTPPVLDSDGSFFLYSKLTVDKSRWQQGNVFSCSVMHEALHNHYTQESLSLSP
light: B1 light
notes: as for B2
B20: GpH7-A5/GpH7-B3 variant K326_20W/GpL16-k0 (antibody, human IgG1, kappa)
heavy 1: not shown
heavy 2: not shown
light: B1 light
notes: as for B1
B21: GpH7-B3 variant T335_05P/GpL16-k0 (antibody, human IgG1, kappa)
heavy: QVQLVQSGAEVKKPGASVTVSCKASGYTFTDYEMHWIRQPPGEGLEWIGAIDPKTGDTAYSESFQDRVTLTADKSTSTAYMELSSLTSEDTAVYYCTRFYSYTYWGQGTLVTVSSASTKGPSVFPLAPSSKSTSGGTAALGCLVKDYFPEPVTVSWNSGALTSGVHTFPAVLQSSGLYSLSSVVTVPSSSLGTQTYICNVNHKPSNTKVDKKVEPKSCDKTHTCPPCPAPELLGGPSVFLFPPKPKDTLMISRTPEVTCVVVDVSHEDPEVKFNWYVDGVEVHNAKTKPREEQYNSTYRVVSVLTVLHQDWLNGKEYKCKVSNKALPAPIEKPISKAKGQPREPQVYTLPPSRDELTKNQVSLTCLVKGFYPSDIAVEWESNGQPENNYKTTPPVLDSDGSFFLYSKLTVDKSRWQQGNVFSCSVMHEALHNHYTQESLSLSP
light: B1 light
notes: as for B2
B22: GpH7-B3 variant T335_07I/GpL16-k0 (antibody, human IgG1, kappa)
heavy: not shown
light: B1 light
notes: as for B2
B23: GpH7-B3 variant S337_06M/GpL16-k0 (antibody, human IgG1, kappa)
heavy: not shown
light: B1 light
notes: as for B2
B24: GpH7-B3 variant T335_13S/GpL16-k0 (antibody, human IgG1, kappa)
heavy: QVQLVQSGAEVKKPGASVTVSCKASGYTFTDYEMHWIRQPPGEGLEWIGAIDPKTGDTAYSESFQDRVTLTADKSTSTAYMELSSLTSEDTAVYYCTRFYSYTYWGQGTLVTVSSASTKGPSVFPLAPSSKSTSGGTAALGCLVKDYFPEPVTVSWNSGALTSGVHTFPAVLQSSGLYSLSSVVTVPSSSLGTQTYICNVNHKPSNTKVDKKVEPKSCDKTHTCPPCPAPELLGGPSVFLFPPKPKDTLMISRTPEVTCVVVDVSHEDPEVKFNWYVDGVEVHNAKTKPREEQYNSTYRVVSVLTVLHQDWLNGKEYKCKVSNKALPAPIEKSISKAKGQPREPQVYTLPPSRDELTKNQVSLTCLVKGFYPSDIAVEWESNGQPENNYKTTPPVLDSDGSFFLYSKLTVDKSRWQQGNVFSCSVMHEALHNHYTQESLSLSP
light: B1 light
notes: as for B2
B25: GpH7-A5/GpH7-B3 variant K326_15Y/GpL16-k0 (antibody, human IgG1, kappa)
heavy 1: not shown
heavy 2: not shown
light: B1 light
notes: as for B1
B26: GpH7-B3 variant P331_04F/GpL16-k0 (antibody, human IgG1, kappa)
heavy: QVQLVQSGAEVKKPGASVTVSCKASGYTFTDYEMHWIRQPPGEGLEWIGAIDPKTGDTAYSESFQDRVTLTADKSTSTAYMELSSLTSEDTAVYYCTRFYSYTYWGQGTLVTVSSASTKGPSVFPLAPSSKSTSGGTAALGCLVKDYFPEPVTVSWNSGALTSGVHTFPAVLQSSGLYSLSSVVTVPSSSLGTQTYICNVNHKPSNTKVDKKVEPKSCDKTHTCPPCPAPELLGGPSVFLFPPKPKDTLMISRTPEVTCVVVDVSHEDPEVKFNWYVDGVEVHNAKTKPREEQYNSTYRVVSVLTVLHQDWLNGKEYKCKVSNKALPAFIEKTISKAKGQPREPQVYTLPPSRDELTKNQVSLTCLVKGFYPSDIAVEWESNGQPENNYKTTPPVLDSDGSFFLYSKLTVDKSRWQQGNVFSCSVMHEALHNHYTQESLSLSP
light: B1 light
notes: as for B2
B27: GpH7-A5/GpH7-B3 variant K334_05P/GpL16-k0 (antibody, human IgG1, kappa)
heavy 1: not shown
heavy 2: not shown
light: B1 light
notes: as for B1
B28: GpH7-B3 variant S337_03V/GpL16-k0 (antibody, human IgG1, kappa)
heavy: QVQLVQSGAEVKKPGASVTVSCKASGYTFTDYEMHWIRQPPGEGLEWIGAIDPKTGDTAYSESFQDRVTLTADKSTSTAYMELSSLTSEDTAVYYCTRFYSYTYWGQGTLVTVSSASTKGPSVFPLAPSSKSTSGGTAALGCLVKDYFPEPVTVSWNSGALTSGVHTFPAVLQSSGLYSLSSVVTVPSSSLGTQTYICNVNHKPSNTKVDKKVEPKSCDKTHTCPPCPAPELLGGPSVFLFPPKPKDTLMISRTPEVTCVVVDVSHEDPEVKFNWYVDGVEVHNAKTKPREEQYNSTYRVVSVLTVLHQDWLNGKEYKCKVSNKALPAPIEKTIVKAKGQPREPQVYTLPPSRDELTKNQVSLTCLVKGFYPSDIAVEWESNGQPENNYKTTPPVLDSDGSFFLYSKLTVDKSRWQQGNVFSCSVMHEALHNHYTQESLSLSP
light: B1 light
notes: as for B2
B29: GpH7-B3 variant P331_16H/GpL16-k0 (antibody, human IgG1, kappa)
heavy: not shown
light: B1 light
notes: as for B2
B30: GpH7-A5/GpH7-B3 variant L328_14T/GpL16-k0 (antibody, human IgG1, kappa)
heavy 1: not shown
heavy 2: not shown
light: B1 light
notes: as for B1

target: T1, FcγRIIa R (extracellular domain with a …); assay: SPR Biacore, relative binding

| He/Con_2aR | Ho/Con_2aR | Binder |
| --- | --- | --- |
| 137 % of GpH7-A5/GpH7-B3/GpL16-k0 (=100) | – | B1 |
| – | 122 % of GpH7-B3/GpL16-k0 (=100) | B2 |
| 110 % of GpH7-A5/GpH7-B3/GpL16-k0 (=100) | – | B3 |
| 106 % of GpH7-A5/GpH7-B3/GpL16-k0 (=100) | – | B4 |
| 126 % of GpH7-A5/GpH7-B3/GpL16-k0 (=100) | – | B5 |
| – | 102 % of GpH7-B3/GpL16-k0 (=100) | B6 |
| – | 102 % of GpH7-B3/GpL16-k0 (=100) | B7 |
| – | 103 % of GpH7-B3/GpL16-k0 (=100) | B8 |
| – | 146 % of GpH7-B3/GpL16-k0 (=100) | B9 |
| – | 118 % of GpH7-B3/GpL16-k0 (=100) | B10 |
| – | 110 % of GpH7-B3/GpL16-k0 (=100) | B11 |
| 141 % of GpH7-A5/GpH7-B3/GpL16-k0 (=100) | – | B12 |
| 124 % of GpH7-A5/GpH7-B3/GpL16-k0 (=100) | – | B13 |
| – | 110 % of GpH7-B3/GpL16-k0 (=100) | B14 |
| – | 101 % of GpH7-B3/GpL16-k0 (=100) | B15 |
| – | 167 % of GpH7-B3/GpL16-k0 (=100) | B16 |
| 109 % of GpH7-A5/GpH7-B3/GpL16-k0 (=100) | – | B17 |
| 147 % of GpH7-A5/GpH7-B3/GpL16-k0 (=100) | – | B18 |
| – | 105 % of GpH7-B3/GpL16-k0 (=100) | B19 |
| 131 % of GpH7-A5/GpH7-B3/GpL16-k0 (=100) | – | B20 |
| – | 104 % of GpH7-B3/GpL16-k0 (=100) | B21 |
| – | 107 % of GpH7-B3/GpL16-k0 (=100) | B22 |
| – | 101 % of GpH7-B3/GpL16-k0 (=100) | B23 |
| – | 102 % of GpH7-B3/GpL16-k0 (=100) | B24 |
| 136 % of GpH7-A5/GpH7-B3/GpL16-k0 (=100) | – | B25 |
| – | 106 % of GpH7-B3/GpL16-k0 (=100) | B26 |
| 103 % of GpH7-A5/GpH7-B3/GpL16-k0 (=100) | – | B27 |
| – | 102 % of GpH7-B3/GpL16-k0 (=100) | B28 |
| – | 100 % of GpH7-B3/GpL16-k0 (=100) | B29 |
| 119 % of GpH7-A5/GpH7-B3/GpL16-k0 (=100) | – | B30 |
